From the Human Domainome abundance scans (Beltran et al. 2025)
± gives the uncertainty stated by the source.

B1: POU domain, class 3, transcription factor 1, residues 247 to 324; numbered along this chain, Q03052 (parent)
chain: EDAPSSDDLEQFAKQFKQRRIKLGFTQADVGLALGTLYGNVFSQTTICRFEALQLSFKNMCKLKPLLNKWLEETDSSS

Variants of: B1
Experiment: abundance fitness (aPCA) (normalised: wild type 0, dead -1); higher = more abundant; growth selection in yeast, the domain comes from the species named
Conditions: Homo sapiens

Variant	abundance fitness
S76T	0.103 ± 0.09
S76M	0.012 ± 0.091
S76L	-0.112 ± 0.074
S76C	-0.341 ± 0.21
S76Q	0.106 ± 0.11
S76G	0.062 ± 0.043
S76V	-0.015 ± 0.053
S76R	0.058 ± 0.054
S76A	-0.096 ± 0.062
S76P	0.099 ± 0.079
S76D	0.089 ± 0.082
S76K	0.12 ± 0.085
S76W	-0.495 ± 0.11
S76H	-0.196 ± 0.18
S76I	-0.426 ± 0.21
N68I	-0.028 ± 0.1
N68T	0.145 ± 0.059
N68Q	0.011 ± 0.076
N68P	-0.763 ± 0.17
N68R	-0.086 ± 0.046
N68L	0.038 ± 0.051
N68G	-0.049 ± 0.046
N68V	-0.008 ± 0.053
N68A	0.029 ± 0.051

Variant	abundance fitness
N68E	0.082 ± 0.059
N68D	-0.071 ± 0.1
N68W	-0.118 ± 0.053
N68S	0.02 ± 0.055
N68M	0.042 ± 0.063
N68K	0.007 ± 0.078
N68H	0.108 ± 0.12
N68Y	-0.162 ± 0.15
N68F	-0.175 ± 0.1
E73R	-0.081 ± 0.038
E73H	-0.03 ± 0.093
E73P	-0.378 ± 0.12
E73I	-0.351 ± 0.22
E73W	-0.137 ± 0.054
E73Y	-0.197 ± 0.15
E73S	-0.126 ± 0.061
E73V	-0.128 ± 0.052
E73A	-0.038 ± 0.055
E73G	-0.196 ± 0.042
E73Q	0.041 ± 0.077
E73D	0.267 ± 0.082
E73T	-0.034 ± 0.073
E73L	-0.018 ± 0.047
E73F	-0.105 ± 0.16

Variant	abundance fitness
E73M	-0.012 ± 0.063
E73N	-0.154 ± 0.12
C61P	-0.988 ± 0.21
C61T	-0.384 ± 0.083
C61Y	-0.164 ± 0.16
C61A	-0.001 ± 0.049
C61E	-0.078 ± 0.062
C61R	-0.065 ± 0.043
C61L	-0.048 ± 0.05
C61N	-0.24 ± 0.17
C61M	-0.036 ± 0.064
C61W	-0.148 ± 0.057
C61D	-0.96 ± 0.25
C61I	-0.134 ± 0.1
C61F	-0.538 ± 0.14
C61V	0.045 ± 0.044
C61Q	0.017 ± 0.07
C61K	-0.043 ± 0.095
C61H	-0.357 ± 0.16
C61S	-0.212 ± 0.058
L66S	-0.767 ± 0.1
L66F	-0.031 ± 0.12
L66W	-0.33 ± 0.066
L66V	-0.18 ± 0.05

Variant	abundance fitness
L66R	-0.504 ± 0.061
L66G	-0.78 ± 0.075
L66E	-0.936 ± 0.14
L66A	-0.226 ± 0.063
L66K	-0.299 ± 0.094
L66M	0.162 ± 0.064
L66D	-0.822 ± 0.24
L66Y	0.053 ± 0.12
L66P	-0.644 ± 0.15
L66I	0.035 ± 0.1
L66Q	-0.4 ± 0.12
D75C	0.089 ± 0.13
D75A	-0.015 ± 0.074
D75V	-0.115 ± 0.069
D75T	-0.274 ± 0.15
D75W	-0.262 ± 0.11
D75S	0.138 ± 0.072
D75R	-0.077 ± 0.061
D75M	-0.4 ± 0.18
D75Y	0.151 ± 0.29
D75L	-0.214 ± 0.08
D75Q	0.165 ± 0.12
D75K	-0.207 ± 0.15
D75E	0.109 ± 0.078

Variant	abundance fitness
D75H	0.395 ± 0.32
D75P	0.178 ± 0.15
D75I	-0.038 ± 0.15
S78F	-0.199 ± 0.17
S78M	-0.256 ± 0.23
S78R	-0.032 ± 0.082
S78D	0.212 ± 0.16
S78C	0.08 ± 0.16
S78E	-0.045 ± 0.12
S78N	0.256 ± 0.28
S78T	0.087 ± 0.11
S78P	-0.019 ± 0.1
S78Q	-0.158 ± 0.17
S78A	-0.023 ± 0.096
S78K	0.164 ± 0.13
S78L	0.091 ± 0.11
S78G	0.153 ± 0.073
M60V	-0.701 ± 0.12
M60C	-0.604 ± 0.25
M60S	-0.448 ± 0.1
M60R	-0.826 ± 0.1
M60Y	0.109 ± 0.28
M60Q	-1.05 ± 0.25
M60W	-0.826 ± 0.14

Variant	abundance fitness
M60P	-1.18 ± 0.42
M60K	-0.09 ± 0.21
M60N	0.011 ± 0.21
M60E	-0.948 ± 0.16
M60L	-0.256 ± 0.086
M60T	-0.396 ± 0.12
M60A	-0.244 ± 0.064
M60I	-0.811 ± 0.36
M60G	-0.673 ± 0.084
K58W	-0.303 ± 0.073
K64V	-0.164 ± 0.064
K64N	-0.334 ± 0.35
K64S	-0.405 ± 0.089
K64I	-0.814 ± 0.37
K64M	-0.042 ± 0.076
K64G	-0.911 ± 0.11
K64P	-0.643 ± 0.2
K64Y	-0.564 ± 0.33
K64L	-0.511 ± 0.09
K64H	-0.126 ± 0.15
K64C	-0.38 ± 0.13
K64T	-0.401 ± 0.096
K64E	-0.564 ± 0.11
K64Q	-0.009 ± 0.075

Variant	abundance fitness
K64F	-0.562 ± 0.3
K64D	-0.653 ± 0.22
K64R	0.002 ± 0.045
K64A	-0.199 ± 0.061
W70A	-0.689 ± 0.1
W70M	-0.756 ± 0.19
W70V	-0.58 ± 0.069
W70D	-0.485 ± 0.16
W70I	-0.707 ± 0.29
W70E	-0.753 ± 0.11
W70C	-0.762 ± 0.2
W70R	-0.679 ± 0.077
W70H	-0.374 ± 0.23
W70F	0.086 ± 0.11
W70L	-0.549 ± 0.072
W70S	-0.348 ± 0.07
W70Q	-0.881 ± 0.2
W70K	-0.756 ± 0.21
W70T	-0.595 ± 0.17
W70G	-0.687 ± 0.066
W70P	-0.93 ± 0.21
W70Y	-0.296 ± 0.18
T74R	-0.009 ± 0.053
T74A	0.12 ± 0.063

Variant	abundance fitness
T74K	0.04 ± 0.12
T74Q	0.089 ± 0.086
T74F	0.453 ± 0.28
T74E	-0.121 ± 0.087
T74G	-0.418 ± 0.066
T74H	0.231 ± 0.13
T74Y	-0.156 ± 0.19
T74M	-0.062 ± 0.095
T74W	-0.224 ± 0.08
T74C	-0.009 ± 0.11
T74N	0.278 ± 0.22
T74I	-0.479 ± 0.39
T74S	-0.141 ± 0.1
T74V	0.042 ± 0.064
N59K	0.042 ± 0.074
N59C	-0.198 ± 0.088
N59M	0.04 ± 0.064
N59V	-0.031 ± 0.047
N59R	-0.017 ± 0.045
N59E	0.132 ± 0.063
N59A	0.08 ± 0.049
N59W	-0.223 ± 0.055
N59Q	-0.025 ± 0.075
N59I	-0.197 ± 0.23

Variant	abundance fitness
N59H	0.096 ± 0.1
N59L	-0.074 ± 0.056
N59G	-0.04 ± 0.04
N59D	0.193 ± 0.063
N59S	-0.084 ± 0.059
N59T	-0.128 ± 0.087
N59F	-0.62 ± 0.22
P65Q	-0.451 ± 0.14
P65K	-0.156 ± 0.12
P65M	-0.332 ± 0.1
P65E	-0.193 ± 0.072
P65G	-0.167 ± 0.043
P65D	-0.053 ± 0.083
P65A	-0.241 ± 0.06
P65S	-0.179 ± 0.064
P65W	-0.389 ± 0.073
P65H	-0.173 ± 0.13
P65F	-0.175 ± 0.14
P65R	-0.205 ± 0.051
P65L	-0.284 ± 0.066
P65Y	-0.158 ± 0.11
P65N	-0.266 ± 0.16
P65T	-0.246 ± 0.083
P65C	-0.139 ± 0.099

Variant	abundance fitness
P65V	-0.113 ± 0.05
L63P	-0.769 ± 0.17
L63E	-0.436 ± 0.13
L63D	-0.297 ± 0.17
L63S	-0.791 ± 0.13
L63G	-0.643 ± 0.069
L63C	-0.736 ± 0.17
L63R	-0.766 ± 0.093
L63N	-0.117 ± 0.32
L63Y	-0.368 ± 0.14
L63W	-0.605 ± 0.092
L63F	-0.148 ± 0.12
L63M	-0.11 ± 0.093
L63V	-0.315 ± 0.062
L63T	-0.582 ± 0.15
L63K	-0.887 ± 0.31
L71Q	-0.504 ± 0.16
L71I	-0.019 ± 0.11
L71G	-0.851 ± 0.11
L71H	-0.402 ± 0.35
L71S	-0.706 ± 0.13
L71E	-0.63 ± 0.12
L71C	-0.712 ± 0.13
L71A	-0.369 ± 0.077

Variant	abundance fitness
L71R	-0.569 ± 0.081
L71M	0.03 ± 0.082
L71P	-1.1 ± 0.27
L71F	-0.82 ± 0.25
L71V	-0.356 ± 0.069
L71D	-0.711 ± 0.47
L71K	-0.677 ± 0.21
L71W	-0.584 ± 0.098
L71N	-0.341 ± 0.18
L71T	-0.988 ± 0.23
S77M	-0.029 ± 0.065
S77R	-0.022 ± 0.039
S77G	0.159 ± 0.036
S77Q	0.106 ± 0.056
S77Y	0.044 ± 0.087
S77H	0.054 ± 0.082
S77N	-0.141 ± 0.11
S77V	0.045 ± 0.039
S77F	-0.243 ± 0.098
S77P	0.071 ± 0.069
S77D	0.036 ± 0.064
S77E	0.002 ± 0.054
S77I	-0.113 ± 0.12
S77T	0.061 ± 0.061

Variant	abundance fitness
S77W	-0.19 ± 0.059
S77A	0.065 ± 0.041
S77L	-0.098 ± 0.045
S77C	-0.165 ± 0.075
S77K	0.096 ± 0.063
K69A	-0.161 ± 0.048
K69Q	-0.02 ± 0.057
K69H	-0.254 ± 0.12
K69N	-0.249 ± 0.12
K69C	-0.361 ± 0.095
K69W	-0.671 ± 0.12
K69D	-0.19 ± 0.11
K69M	-0.144 ± 0.066
K69V	-0.559 ± 0.071
K69R	-0.058 ± 0.041
K69P	-0.662 ± 0.11
K69Y	-0.159 ± 0.14
K69I	0.102 ± 0.15
K69G	-0.119 ± 0.041
K69T	-0.251 ± 0.074
K69E	-0.342 ± 0.072
E72A	-0.193 ± 0.05
E72K	-0.049 ± 0.076
E72C	-0.247 ± 0.091

Variant	abundance fitness
E72M	0.037 ± 0.057
E72I	-0.245 ± 0.13
E72D	0.004 ± 0.065
E72R	-0.079 ± 0.04
E72S	-0.212 ± 0.054
E72G	-0.368 ± 0.052
E72N	-0.152 ± 0.13
E72L	-0.024 ± 0.044
E72H	-0.018 ± 0.1
E72Q	-0.143 ± 0.073
E72V	-0.1 ± 0.044
E72P	-0.736 ± 0.14
E72F	-0.493 ± 0.14
E72Y	-0.19 ± 0.12
E72T	-0.148 ± 0.071
K62Q	-0.184 ± 0.082
K62C	-0.224 ± 0.093
K62T	-0.058 ± 0.083
K62E	-0.095 ± 0.074
K62F	-0.278 ± 0.15
K62G	-0.365 ± 0.06
K62W	-0.449 ± 0.1
K62Y	0.035 ± 0.17
K62M	-0.075 ± 0.081

Variant	abundance fitness
K62H	0.03 ± 0.12
K62L	-0.119 ± 0.061
K62N	0.06 ± 0.18
K62R	-0.15 ± 0.053
K62D	-0.268 ± 0.22
K62P	-0.882 ± 0.21
L67S	-0.829 ± 0.12
L67R	-0.716 ± 0.075
L67F	-0.698 ± 0.18
L67W	-0.81 ± 0.1
L67M	-0.084 ± 0.077
L67Q	-1.2 ± 0.3
L67C	-0.427 ± 0.12
L67I	-0.321 ± 0.16
L67V	-0.563 ± 0.078
L67H	-0.04 ± 0.2
L67E	-0.951 ± 0.16
L67N	-0.553 ± 0.28
L67P	-0.613 ± 0.13
L67A	-0.562 ± 0.1
L67D	-0.167 ± 0.13
L67T	-0.711 ± 0.16
